# Experimental data as given in patent US20210324359A1, “USE OF GRAM-NEGATIVE LYSIN-ANTIMICROBIAL PEPTIDE (AMP) POLYPEPTIDE CONSTRUCTS IN TREATING ENDOCARDITIS” (priority 2020, published 2021).
# Entries after “also recorded” stand apart in the source; their conditions may differ. Like-named read-outs stand apart in the source and are kept apart here.
# B1: GN370: lysin-AMP construct: MIDR, FIRL and NPTH moieties N-terminal to GN202 lysin (SEQ ID NO: 44) (protein)
# chain: MIDRFIRLNPTHGPRRPRRPGRRAPVRTSQRGIDLIKSFEGLRLSAYQDSVGVWTIGYGTTRGVTRYMTITVEQAERMLSNDIQRFEPELDRLAKVPLNQNQWDALMSFVYNLGAANLASSTLLDLLNKGDYQGAADQFPHWVNAGGKRLDGLVKRRAAERALFLEPLS
# Assays:
# P. aeruginosa PA20 = experiment: MIC of GN370 and meropenem against the infecting strain; type: cell-based, Pseudomonas aeruginosa
# [1] = system: P. aeruginosa PA20 recovered from rabbit lung homogenates; type: cell-based, Pseudomonas aeruginosa; settings: for number of isolates with GN370 MIC 1 μg/mL / number of isolates with GN370 MIC 2 μg/mL: n=48
# [2] = system: carbapenem-resistant P. aeruginosa strains; experiment: Resensitization of carbapenem-resistant strains, combinations with imipenem or meropenem (Tables 18-22); type: cell-based, Pseudomonas aeruginosa; settings: for FICI: isolate WC-452
# [3] = system: P. aeruginosa strain WC-453; experiment: Time-kill assay in HEPES or CAA with 25% human serum (Tables 7, 8); type: cell-based, Pseudomonas aeruginosa
# Method: Exponential phase bacteria were then pelleted and resuspended in 1/5 culture volume of 25 mM HEPES, pH 7.4 before a final adjustment to an optical density corresponding to a McFarland value of 0.5. […] All treatments were incubated at 37° C. with aeration. At time points before the addition of lysin (or buffer control) and at 1 hour and 3 hours intervals thereafter, culture samples were removed for quantitative plating on CAA agar plates.
# [4] = system: Pseudomonas aeruginosa strain CFS-1292 (meropenem resistant); experiment: MIC in 25% CAA alone, with […] human serum or […] SURVANTA (Table 13); type: cell-based
# Method: Materials and methods: MICs were determined by broth microdilution in media supplemented with human serum and pulmonary surfactant ([…]®; Myoderm Clinical Supplies). Minimal biofilm eradicating concentrations (MBECs) were determined using standard methods. […] Fluorescence microscopy was performed after LIVE/DEAD staining (ThermoFisher) and TEM was performed.
# [5] = system: Pseudomonas aeruginosa strain CFS-1292 (meropenem resistant); settings: strain CFS-1292; no added cations
# Method: The activity of selected GN lysins and constructs in the presence of divalent cations was evaluated, and the impact of divalent cations at physiological concentrations was examined in the MIC assay format.
# P. aeruginosa isolates = experiment: MIC against a range of isolates in CAA + […] human serum (Table 11); type: cell-based, Pseudomonas aeruginosa
# [6] = system: outer membrane of P. aeruginosa (CFS 1292); experiment: N-phenyl-1-napthylamine (NPN) uptake assay, outer membrane destabilization (Table 15); type: cell-based, Pseudomonas aeruginosa; settings: NPN fluorescence, buffer = 100, lysin 100 μg/well
# Method: The ability of gram-negative lysins to destabilize the outer membrane of P. aeruginosa was evaluated through the use of an N-phenyl-1-napthylamine (NPN) uptake assay. […] NPN was added to a final concentration of […]. […] Changes in fluorescence were recorded (excitation 1=350 nm; emission 1=420 nm) over two hours.
# [7] = isolates from GN370 (3 mg/kg) + Meropenem (20 mg/kg) group
# [8] = isolates from GN370 (30 mg/kg) + Meropenem (20 mg/kg) group
# [9] = isolates from GN370 (30 mg/kg) group
# [10] = isolates from Vehicle control group
molecule,measurement,setting,value
B1,MIC of P. aeruginosa PA20,P. aeruginosa PA20,2 µg/mL
same,MIC against P. aeruginosa,P. aeruginosa PA20; GN370 value in rabbit serum,2 µg/mL
same,ex vivo resistance / increase in MIC of isolates recovered from rabbit lung,[1]; all treatment groups of the rabbit pulmonary model,not observed; also recorded: no increase in MIC
same,number of isolates with GN370 MIC 1 μg/mL,[1]; [7],34
same,number of isolates with GN370 MIC 2 μg/mL,[1]; [7],14
same,number of isolates with GN370 MIC 2 μg/mL,[1]; isolates from GN370 (3 mg/kg) group,16
same,number of isolates with GN370 MIC 1 μg/mL,[1]; isolates from GN370 (10 mg/kg) + Meropenem (20 mg/kg) group,48
same,number of isolates with GN370 MIC 2 μg/mL,[1]; isolates from GN370 (10 mg/kg) group,16
same,number of isolates with GN370 MIC 1 μg/mL,[1]; [8],35
same,number of isolates with GN370 MIC 2 μg/mL,[1]; [8],13
same,number of isolates with GN370 MIC 1 μg/mL,[1]; [9],16
same,number of isolates with GN370 MIC 2 μg/mL,[1]; [9],32
same,number of isolates with GN370 MIC 2 μg/mL,[1]; isolates from Meropenem (20 mg/kg) group,16
same,number of isolates with GN370 MIC 2 μg/mL,[1]; isolates from Pre-treatment control group,48
same,number of isolates with GN370 MIC 1 μg/mL,[1]; [10],13
same,number of isolates with GN370 MIC 2 μg/mL,[1]; [10],35
same,resensitization to carbapenems in synergistic combinations,"[2]; imipenem (IPM) and meropenem (MEM), carbapenem-resistant isolates",reductions of IPM and MEM MICS to below breakpoint values
same,FICI,[2]; lysin + imipenem,0.094
same,FICI,[2]; lysin + meropenem,0.125
same,"Antibiotic MIC / Lysin MIC, Alone",[2]; vs. WC-452 (Table 22),2
same,"bactericidal activity (CFU decrease of 3-Log10, 3 hours after the addition of lysin)","[3]; 10 μg/mL, enumerated lysins in CAA/HuS, general statement for HEPES and CAA/HuS",bactericidal activity
same,"CAA/HuS (Log10 CFU/mL), 1 hr","[3]; CAA + 25% human serum, lysin 10 μg/ml, 1 hr, WC-453",4.0 Log10 CFU/mL
same,"CAA/HuS (Log10 CFU/mL), 3 hr","[3]; CAA + 25% human serum, lysin 10 μg/ml, 3 hr, WC-453",<3.7 Log10 CFU/mL
same,MIC in […] Survanta,[4],2 µg/mL
same,MIC in human serum ([…]) in CAA,[4],2 µg/mL
same,activity in human serum and pulmonary surfactant,[4],active in human serum and pulmonary surfactant
same,25% CAA MIC,[4]; media alone,4
same,MIC in 25% CAA,[5],4 µg/mL
same,activity against P. aeruginosa isolates in human serum or SURVANTA,P. aeruginosa isolates; Tables 11 and 12,active against a variety of P. aeruginosa isolates
same,"MIC, CAA + […] Human Serum",P. aeruginosa isolates; strain CFS 1109 (ATCC 17646),1 µg/mL
same,"MIC, CAA + […] Human Serum",P. aeruginosa isolates; strain CFS 1292,2 µg/mL
same,"MIC, CAA + […] Human Serum",P. aeruginosa isolates; strain CFS1539 (PA1),1 µg/mL
same,"MIC, CAA + […] Human Serum",P. aeruginosa isolates; strain CFS 1540 (PA2),1 µg/mL
same,"MIC, CAA + […] Human Serum",P. aeruginosa isolates; strain CFS 1541 (PA3),1 µg/mL
same,"MIC, CAA + […] Human Serum",P. aeruginosa isolates; strain CFS 1557 (PA19),4 µg/mL
same,"MIC, CAA + […] Human Serum",P. aeruginosa isolates; strain CFS 1558 (PA20),0.5 µg/mL
same,"MIC, CAA + […] Human Serum",P. aeruginosa isolates; strain CFS 1559 (PA21),2 µg/mL
same,"MIC, CAA + […] Human Serum",P. aeruginosa isolates; strain CFS 1560 (PA22),2 µg/mL
same,"MIC, CAA + […] Human Serum",P. aeruginosa isolates; strain CFS 1561 (PA23),2 µg/mL
same,"MIC, CAA + […] Human Serum",P. aeruginosa isolates; strain CFS 1562 (PA24),2 µg/mL
same,"MIC, CAA + […] Human Serum",P. aeruginosa isolates; strain CFS 1596 (PA26),1 µg/mL
same,"MIC, CAA + […] Human Serum",P. aeruginosa isolates; strain CFS 1597 (PA27),0.5 µg/mL
same,"MIC, CAA + […] Human Serum",P. aeruginosa isolates; strain CFS 1669 (PA41),2 µg/mL
same,"MIC, CAA + […] Human Serum",P. aeruginosa isolates; strain CFS 1674 (PA46),2 µg/mL
same,"MIC, CAA + […] Human Serum",P. aeruginosa isolates; strain CFS 1675 (PA47),1 µg/mL
same,"MIC, CAA + […] Human Serum",P. aeruginosa isolates; strain CFS 1766 (ATCC 27853),4 µg/mL
same,% RFU,[6]; 5 minutes,205 % RFU
same,% RFU,[6]; 10 minutes,217 % RFU
same,% RFU,[6]; 20 minutes,213 % RFU
same,% RFU,[6]; 40 minutes,198 % RFU
same,% RFU,[6]; 60 minutes,193 % RFU
same,% RFU,[6]; 100 minutes,184 % RFU
